Substitutions are numbered along the chain they refer to.
Key:
[1] = Fab Tm by dynamic scanning fluorimetry (DSF); type: physicochemical; conditions: optimized antibodies
Method: 10 μL of 20× Sypro Orange is added to 20 μL of 0.2-1 mg/mL mAb or Fab solution. A RT-PCR instrument (BioRad CFX96 RT PCR) is used to ramp the sample plate temperature from 40 to 95° C. at 0.5° C. increment, with 2 min equilibrate at each temperature. The negative of first derivative for the raw data is used to extract Tm.

[2] = SEC-HPLC % monomer; type: physicochemical; conditions: optimized antibodies
Method: A TSKgel SuperSW mAb HTP column (22855) was used for fast SEC analysis of mammalian produced mAbs at 0.4 mL/min with a cycle time of 6 min/run. 200 mM Sodium Phosphate and 250 mM Sodium Chloride was used as the mobile phase.

[3] = molecular target: T1, human IL18BP-Fc binding to human IL-18 (Homo sapiens, UniProt O95998); test: Blocking of hIL18BP-hIL-18 interaction by ELISA, IL18BP plate bound; conditions: 1 ng/ml human IL-18, compared with clone W19089C
T1 sequence (O95998 31-194): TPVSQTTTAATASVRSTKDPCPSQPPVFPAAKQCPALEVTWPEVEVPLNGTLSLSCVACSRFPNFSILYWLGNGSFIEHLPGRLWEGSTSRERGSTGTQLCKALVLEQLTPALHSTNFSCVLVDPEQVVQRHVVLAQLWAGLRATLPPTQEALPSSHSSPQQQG
Method: This assay was utilized to identify anti-human IL18BP Abs that inhibit the binding interaction between human IL18BP- and its counterpart, human IL-18. […] Human IL18BP-Fc protein was coated on the wells of a high binding plate overnight at 4° C. (1 μg/ml, 100 μl/well volume). Plates were washed three times with PBS-T buffer (1×PBS pH 7.4, 0.05% Tween20) incubated with 250 μL blocking buffer (2.5% skim milk in PBS) at room temperature (RT) for 2 hr. Blocking buffer was removed and plates were washed three times with PBS-T buffer. Plate-bound ligands were incubated with anti-human IL18BP Abs in 1% BSA in PBS buffer two times serially diluted (2.5-0.019 μg/ml, 100 μL/well volume) at RT for 1 h. Plates were washed one time with PBS. Plate-bound ligands were incubated with human IL-18 (cat. 9124-IL, R&D) in 1% BSA in PBS buffer (1 ng/ml, 100 μL/well volume) at RT for 1 h. Plates were washed three times with PBS-T (0.05% Tween20 in PBS). Biotinylated anti-IL18 detection antibody, cat. D045-6, R&D 1:1000 in 1% BSA in PBS buffer was added (100 μL/well). This was incubated at RT for 1 hr, and plates were washed again. Peroxidase Streptavidin, Jackson, cat. 016-030-084 1:1000 in 2.5% skim milk in PBS was added (100 μL/well) for 1 hr at RT. […] The HRP reaction was stopped by adding 50 μL 1N HCl and absorbance signals at 450 nm were read on a luminescence Reader-EnSpire (Perkin Elmar). […]

[4] = molecular target: T2, recombinant human IL18-BP (Homo sapiens, UniProt O95998); test: MEL624:TIL assay; type: cell-based; conditions: rhIL-18 30 ng/ml + rhIL-18BP 1 μg/ml, vs isotype control
T2 construct: purchased R&D systems 119-BP
T2 sequence (O95998 31-194): T1 sequence (O95998 31-194)
Method: Human MEL624 cells were thawed and grown in DMEM with 10% FBS, 1% Glutamax, 1% Penicillin-Streptomycin Solution and 1% HEPES buffer. The cells were then seeded at 75 k cells/well in a 96 well plate in the assay medium (IMDM with 10% human serum, 1% Glutamax, 1% MEM eagle, 1% Sodium Pyruvate and 1% Penicillin-Streptomycin Solution) and incubated 1 hour in 37° C., 5% CO2 incubator before co-culture with human tumor infiltrating lymphocytes that were previously expanded using known melanoma antigens (TILs). Human TILs were thawed in full TIL media and 75 k cells/well were co-cultured with the MEL624 cells to create an effector: target ratio of 1:1. The co-cultured cells were then treated with rhIL-18 (30 ng/ml) and rhIL-18BP (1 μg/ml) for 30 min in 37° C., 5% CO2 incubator to allow IL-18:IL-18BP complex formation. After 30 minutes, anti-human IL-18BP mAb (ADI-71722, dose titration, 30 μg/ml-0.01 μg/ml, dilution factor of 1:3) or relevant isotype control (hIgG1 30 μg/ml) were added to the co-culture to examine its capability to restore IL-18 activity. Cells and all added solutions were prepared in full assay medium to a final volume of 200 μl/well. Plates were incubated for 24 hours in 37° C., 5% CO2 incubator, after which the supernatant was collected for cytokine secretion evaluation. All tests were done in triplicates and each repeated with TIL four donors. […]

[5] = molecular target: T2, recombinant human IL18-BP; test: CMV recall assay; type: cell-based
Method: Human MEL-624 overexpressing PD-L1 cells were thawed and loaded with CMV pp65 peptide (0.03 μg/ml). The cells were seeded at 100K/well in a 96 well plate and incubated for 30 minutes in 37° C., 5% C02 incubator with a combination rhIL-18 (30 ng/ml, R&D systems, 9124-IL/CF) and rhIL-18BP-Fc chimeric protein (2 μg/ml, R&D systems 119-BP) to allow IL-18+IL-18BP complex formation. After 30 minutes, anti-human IL-18BP (ADI-71722), anti-human PVRIG, anti-human TIGIT (anti-TIGIT), anti-human PD1 (Pembrolizumab) or relevant isotype control (hIgG4) were added to the culture to examine their capability to restore IL-18 activity. All antibodies were added to a final concentration of 10 μg/ml. 30 minutes post incubation with antibodies, thawed CMV-reactive T-cells were added to the culture. Cells and all added solutions were prepared in full IMDM (IMDM media with 10% human serum, 1% Glutamax, 1% MEM eagle, 1% sodium pyruvate, and 1% Penicillin-Streptomycin Solution) to a final volume of 200 μl/well. Plates were incubated for 24 hours in 37° C., 5% C02 incubator, after which the supernatant was collected for IFNγ secretion evaluation. All tests were done in triplicates and each repeated with three donors.
MEL624 cells that overexpress PD-L1 were loaded with CMV peptide pp65. […] CMV-specific T-cells were then added to the culture and IFNg secretion was measured after an overnight incubation.

[6] = tested on: whole blood; test: Whole blood loop assay (ID.Flow); type: cell-based, human; conditions: blood of six healthy volunteers, 24 hr
Method: Flow, an ex vivo system that mimics the human blood circulation. Fresh whole blood was taken from six healthy volunteers and immediately transferred to a whole blood loop system. The test items were administered, and the blood was set to circulate at 37° C. to prevent clotting. Blood samples collected at the 24 hr time point were analyzed for hematology and flow cytometry parameters and then processed to plasma for cytokine analysis. The anti-CD52 antibody Alemtuzumab was included as a reference antibody with manageable cytokine release in the clinic.

B1: ADI-71722: anti-IL18-BP antibody, sequences in FIG. 2D; 66670 lineage (antibody, V domains shown)
VH: QVQLVQSGAEVKKPGSSVKVSCKASGGTFSEYPISWVRQAPGQGLEWMGGIIPGAGTAIYAQKFQGRVTITADESTSTAYMELSSLRSEDTAVYYCARGRHFHETWGQGTLVTVSS
VL: DIQMTQSPSSVSASVGDRVTITCRASQGISSWLAWYQQKPGKAPKLLIYAASSLQSGVPSRFSGSGSGTDFTLTISSLQPEDFATYYCQQVYRFPWTFGGGTKVEIK
- Fab Tm (DSF, ° C.) [1]: 73.0 °C
- SEC-HPLC, % monomer [2]: 95.9%
- Blocking effect on binding of human IL18BP to human IL-18 [3]: superior to Biolegend Ab
- IFNγ secretion from TILs [4]: fully restore IL-18 activity
- IFNγ secretion by CMV-reactive T-cells, as mono ([5]; 10 μg/ml, rhIL-18 30 ng/ml + rhIL-18BP 2 μg/ml): fully restore IFNγ secretion
- IFNγ secretion by CMV-reactive T-cells, in combination ([5]; combined with Pembrolizumab, anti-PVRIG or anti-TIGIT, each 10 μg/ml, vs mono): in a more potent manner

B2: ADI-71663: anti-IL18-BP antibody, sequences in FIG. 2F; 66692 lineage (antibody, V domains shown)
VH: EVQLLESGGGLVQPGGSLRLSCAASGFTFGNTAMSWVRQAPGKGLEWVSAISANAGSTYYADSVKGRFTISRDNSKNTLYLQMNSLRAEDTAVYYCAKGPDRQVFDYWGQGTLVTVSS
VL: B1 VL with Q90H, V91A, Y92L, R93F, W96Y
- Fab Tm (DSF, ° C.) [1]: 68.0 °C
- SEC-HPLC, % monomer [2]: 93.9%

B3: ADI-71709: anti-IL18-BP antibody, sequences in FIG. 2A; 66650 lineage (antibody, V domains shown)
VH: QVQLVQSGAEVKKPGASVKVSCEASGYTFDIYAVHWVRQAPGQRLEWMGWIHAGTGATKYSQKFQGRVTITRDTSASTAYMELSSLRSEDTAVYYCARGLGEVGPTGTSWFDPWGQGTLVTVSS
VL: DIQMTQSPSTLSASVGDRVTITCRASQSISSWLAWYQQKPGKAPKLLIYEASSLESGVPLRFSGSGSGTEFTLTISSLQPDDFATYYCQQYRQSPFTFGGGTKVEIK
- Fab Tm (DSF, ° C.) [1]: 71.5 °C
- SEC-HPLC, % monomer [2]: 97.6%
- Signs of systemic immune activation, in combination with Nivolumab [6]: did not show signs of systemic immune activation
- Signs of systemic immune activation, as mono ([6]; hematology, flow cytometry, cytokines): did not show signs of systemic immune activation

B4: ADI-71701: anti-IL18-BP antibody, sequences in FIG. 2E; 66650 lineage (antibody, V domains shown)
VH: B3 VH with E23K, D30N, I31S, V34M, A57N
VL: B3 VL with S9P, L60S, Q93V, S94F
- Fab Tm (DSF, ° C.) [1]: 71.5 °C
- SEC-HPLC, % monomer [2]: 98.6%

B5: ADI-71707: anti-IL18-BP antibody, sequences in FIG. 2M; 66650 lineage (antibody, V domains shown)
VH: B3 VH with E23K, D30R, I31H, V34M, A57N, K59L
VL: B3 VL with L60S, Q93L, S94G
- Fab Tm (DSF, ° C.) [1]: 71.0 °C
- SEC-HPLC, % monomer [2]: 98.8%

— patent publication US20240425607A1, “IL-18BP ANTAGONIST ANTIBODIES AND THEIR USE IN MONOTHERAPY AND COMBINATION THERAPY IN THE TREATMENT OF CANCER” (Compugen Ltd., priority 2023, published 2024)
